Data: IntAct's records for PubMed 22493499

B1: Signaling lymphocytic activation molecule (Mus musculus), Q9QUM4 (parent)
chain: MDPKGSLSWRILLFLSLAFELSYGTGGGVMDCPVILQKLGQDTWLPLTNEHQINKSVNKSVRILVTMATSPGSKSNKKIVSFDLSKGSYPDHLEDGYHFQSKNLSLKILGNRRESEGWYLVSVEENVSVQQFCKQLKLYEQVSPPEIKVLNKTQENENGTCSLLLACTVKKGDHVTYSWSDEAGTHLLSRANRSHLLHITLSNQHQDSIYNCTASNPVSSISRTFNLSSQACKQESSSESSPWMQYTLVPLGVVIIFILVFTAIIMMKRQGKSNHCQPPVEEKSLTIYAQVQKSGPQEKKLHDALTDQDPCTTIYVAATEPAPESVQEPNPTTVYASVTLPES

Variants of: B1
Conditions: with becn1_human BECN1, Q14457
becn1_human BECN1, Q14457, sequence (Q14457 whole entry): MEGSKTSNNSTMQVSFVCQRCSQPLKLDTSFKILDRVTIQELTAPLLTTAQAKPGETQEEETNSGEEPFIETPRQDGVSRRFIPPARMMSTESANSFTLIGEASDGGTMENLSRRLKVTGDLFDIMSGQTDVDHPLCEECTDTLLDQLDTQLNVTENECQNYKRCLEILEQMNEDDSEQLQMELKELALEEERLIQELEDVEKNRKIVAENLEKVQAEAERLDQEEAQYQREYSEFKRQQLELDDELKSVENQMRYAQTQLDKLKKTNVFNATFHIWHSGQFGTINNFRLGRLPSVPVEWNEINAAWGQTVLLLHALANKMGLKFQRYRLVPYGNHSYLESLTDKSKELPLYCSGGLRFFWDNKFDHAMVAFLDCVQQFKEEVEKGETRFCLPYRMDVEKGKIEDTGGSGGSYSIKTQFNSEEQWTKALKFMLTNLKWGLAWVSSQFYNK

Effect of a mutation on the interaction, decreasing interaction:
Y288F;Y315F
Y288F;Y335F
Y315F;Y335F
